Laboratory results reported in IntAct's records for PubMed 15064750.

B1: Proliferation-associated protein 2G4 (Homo sapiens), Q9UQ80 (parent)
chain: MSGEDEQQEQTIAEDLVVTKYKMGGDIANRVLRSLVEASSSGVSVLSLCEKGDAMIMEETGKIFKKEKEMKKGIAFPTSISVNNCVCHFSPLKSDQDYILKEGDLVKIDLGVHVDGFIANVAHTFVVDVAQGTQVTGRKADVIKAAHLCAEAALRLVKPGNQNTQVTEAWNKVAHSFNCTPIEGMLSHQLKQHVIDGEKTIIQNPTDQQKKDHEKAEFEVHEVYAVDVLVSSGEGKAKDAGQRTTIYKRDPSKQYGLKMKTSRAFFSEVERRFDAMPFTLRAFEDEKKARMGVVECAKHELLQPFNVLYEKEGEFVAQFKFTVLLMPNGPMRITSGPFEPDLYKSEMEVQDAELKALLQSSASRKTQKKKKKKASKTAENATSGETLEENEAGD

Variants of: B1
Conditions: with npm_human NPM1, P06748
Chain of npm_human NPM1, P06748 (P06748 whole entry): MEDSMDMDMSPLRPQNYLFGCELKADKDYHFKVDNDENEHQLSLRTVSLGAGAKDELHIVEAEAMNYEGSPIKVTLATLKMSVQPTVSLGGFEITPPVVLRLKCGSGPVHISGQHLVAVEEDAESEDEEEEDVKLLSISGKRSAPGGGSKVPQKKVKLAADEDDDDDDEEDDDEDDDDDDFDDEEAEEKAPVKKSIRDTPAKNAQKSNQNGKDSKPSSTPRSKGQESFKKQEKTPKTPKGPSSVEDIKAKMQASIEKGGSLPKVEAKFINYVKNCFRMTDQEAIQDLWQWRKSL

effect of a mutation on the interaction	Variant
decreasing interaction	R364A;K365A
disrupting interaction	K20A;K22A
